Results: FireProtDB

B1: Ribonuclease HI, P0A7Y4 (parent)
chain: MLKQVEIFTDGSCLGNPGPGGYGAILRYRGREKTFSAGYTRTTNNRMELMAAIVALEALKEHCEVILSTDSQYVRQGITQWIHNWKKRGWKTADKKPVKNVDLWQRLDAALGQHQIKWEWVKGHAGHPENERCDELARAAAMNPTLEDTGYQVEV

Variants of: B1
Details: Escherichia coli (strain K12); pH 3; 50.1 °C; Thermal; CD; glycine-HCl 10 mM; NaCl 0.1 M; reversible: yes; structure 2RN2; whole UniProt chain shown

| Variant | ddG of mutation (higher = less stable) [kcal/mol] |
| --- | --- |
| H62R | 0.03 |
| H62P | -1 |
| Q80L K117R | 0.03 |
| K95N | -0.88 |
| A52V | -1.7 |
| K117R | 0.06 |
| G23A | -0.7 |
| E135K | 1.1 |

Same assay, conditions: Escherichia coli (strain K12); pH 3; Thermal; CD; glycine-HCl 10 mM; NaCl 0.1 M; reversible: yes; structure 2RN2; whole UniProt chain shown

| Variant | Tm [°C] | change of melting temperature, mutant - wild type (higher = more stable) [°C] | unfolding enthalpy (van 't Hoff) [kcal/mol] |
| --- | --- | --- | --- |
| H62R | 50 | -0.1 | 114 |
| H62P | 53.5 | 3.4 | 110 |
| Q80L K117R | 50 | -0.1 | 104 |
| K95N | 53 | 2.9 | 109 |
| A52V | 55.6 | 5.5 | 128 |
| K117R | 49.9 | -0.2 | 97.1 |
| G23A | 52.4 | 2.3 | 99.3 |
| E135K | 46.4 | -3.7 | 99 |

Same assay, conditions: Escherichia coli (strain K12); pH 5.5; 52.7 °C; Thermal; CD; Sodium acetate 20 mM; NaCl 0.1 M; reversible: yes; structure 2RN2; whole UniProt chain shown

| Variant | ddG of mutation (higher = less stable) [kcal/mol] |
| --- | --- |
| H62R | -0.36 |
| H62P | -1.1 |
| K95N | -0.88 |
| K117R | -0.03 |
| E135K | 0.22 |

Same assay, conditions: Escherichia coli (strain K12); pH 5.5; Thermal; CD; Sodium acetate 20 mM; NaCl 0.1 M; reversible: yes; structure 2RN2; whole UniProt chain shown

| Variant | Tm [°C] | change of melting temperature, mutant - wild type (higher = more stable) [°C] | unfolding enthalpy (van 't Hoff) [kcal/mol] |
| --- | --- | --- | --- |
| H62R | 54 | 1.3 | 97.1 |
| H62P | 56.8 | 4.1 | 102 |
| Q80L K117R | 53.5 | 0.8 | 83.1 |
| A52V | 60.5 | 7.8 | 87.5 |
| G23A | 54.5 | 1.8 | 91.8 |
| E135K | 51.9 | -0.8 | 89.9 |

Same assay, conditions: Escherichia coli (strain K12); pH 3; 49.8 °C; Thermal; CD; glycine-HCl 10 mM; reversible: yes; structure 2RN2; whole UniProt chain shown

| Variant | ddG of mutation (higher = less stable) [kcal/mol] |
| --- | --- |
| H62P | -1 |
| K91R D94E | 0.6 |
| D94R K95G | -1.1 |
| K95N | -0.9 |
| K95A | -0.1 |
| Q113P | 0.2 |

Same assay, conditions: Escherichia coli (strain K12); pH 3; Thermal; CD; glycine-HCl 10 mM; reversible: yes; structure 2RN2; whole UniProt chain shown

| Variant | Tm [°C] | change of melting temperature, mutant - wild type (higher = more stable) [°C] | unfolding enthalpy (van 't Hoff) [kcal/mol] |
| --- | --- | --- | --- |
| H62P | 53.2 | 3.4 | 110 |
| K91R D94E | 47.8 | -2 | 93.8 |
| D94R K95G | 53.4 | 3.6 | 127 |
| K95N | 49.8 | 2.9 | 109 |
| K95G | 49.8 | 5.7 | 102 |
| K91R | 49.8 | 0.5 | 119 |
| Q113P | 49.2 | -0.6 | 100 |

Same assay, conditions: Escherichia coli (strain K12); pH 5.5; 25 °C; GdnHCl; CD; Sodium acetate 20 mM; reversible: yes; structure 2RN2; whole UniProt chain shown

| Variant | ddG of mutation (higher = less stable) [kcal/mol] | denaturant m value [kcal/mol/M] | denaturant midpoint (higher = more stable) [M] | unfolding free energy [kcal/mol] |
| --- | --- | --- | --- | --- |
| H62P | -0.74 | 4.98 | 1.98 | 9.89 |

Same assay, conditions: Escherichia coli (strain K12); pH 5.5; 52 °C; Thermal; CD; Sodium acetate 20 mM; reversible: yes; structure 2RN2; whole UniProt chain shown

| Variant | ddG of mutation (higher = less stable) [kcal/mol] |
| --- | --- |
| H62P | -1.1 |
| Q113P | 0.6 |

Same assay, conditions: Escherichia coli (strain K12); pH 5.5; Thermal; CD; Sodium acetate 20 mM; reversible: yes; structure 2RN2; whole UniProt chain shown

| Variant | Tm [°C] | change of melting temperature, mutant - wild type (higher = more stable) [°C] | unfolding enthalpy (van 't Hoff) [kcal/mol] |
| --- | --- | --- | --- |
| H62P | 56.1 | 4.1 | 102 |
| K95N | 52 | 3.2 | 90 |
| K95G | 52 | 6.8 | 90.4 |
| K95A | 52 | 0.4 | 96.4 |
| K91R | 52 | 0.1 | 96.2 |
| Q113P | 49.9 | -2.1 | 81 |

Same assay, conditions: Escherichia coli (strain K12); pH 5.5; Thermal; CD; glycine-HCl 10 mM; reversible: yes; structure 2RN2; whole UniProt chain shown

| Variant | Tm [°C] | change of melting temperature, mutant - wild type (higher = more stable) [°C] | unfolding enthalpy (van 't Hoff) [kcal/mol] |
| --- | --- | --- | --- |
| K91R D94E | 50.2 | -1.8 | 87.5 |
| D94R K95G | 57.5 | 5.5 | 102 |

Same assay, conditions: Escherichia coli (strain K12); pH 5.5; 49.8 °C; Thermal; CD; glycine-HCl 10 mM; reversible: yes; structure 2RN2; whole UniProt chain shown

| Variant | ddG of mutation (higher = less stable) [kcal/mol] |
| --- | --- |
| D94R K95G | -1.5 |

Same assay, conditions: Escherichia coli (strain K12); pH 5.5; 49.8 °C; Thermal; CD; Sodium acetate 20 mM; reversible: yes; structure 2RN2; whole UniProt chain shown

| Variant | ddG of mutation (higher = less stable) [kcal/mol] |
| --- | --- |
| K95N | -0.9 |
| K95G | -1.9 |
| K95A | -0.1 |
| K91R | 0 |
